For 79 substances, median enrichment results are on record in the supplement of paper PMC11502859.
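Note: lentiviral eGFP-IRES-mCherry reporter pool sorted by FACS 96 h post-transduction, gated on mCherry-high cells, Illumina read counts normalized per million, median across four biological replicates.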

The subject of this data set is HEK293T. The data set is described as follows: median enrichment of reporter reads in eGFP-reduced (low/intermediate) vs eGFP-high sorted cells (eGFP-extension fusion abundance) (ratio); higher = stronger loss of eGFP-fusion protein abundance (more destabilising extension).
As to RKDNSWKPQQFSIQGIYLRQIEYIL [ARL6], the median enrichment turned out to be 6.56.

In the case of “GRCSDASAGAGTPNPWLQNRDPHPDRGSSAFEGFQAGLCGTEAQRGPGTWQRWGREEIQLPSLLPLLLQVPSNQELYILLVPQ [CCDC86]”, the median enrichment is 5.26.

On to “GAHPKYACHLRPQAGHTGQPACRQDLPASSSQYSLQRLKCEAPAPPSALQPTGPGRTCPLSVSPSRVPRWRPLSTG [PAK6]”, for which the median enrichment came out at 3.28.

As for “LFCCCIYTSKGPDLLLLKLFFKTWNYKEIRSSITFDTNFYRN [TTC13]”, the median enrichment stood at 5.88.

As for “SMLLPGLQKLHGHSSVIGLSLITKITAQDHLPEKHPLA [PLCB1]”, the median enrichment came to 19.1.

Turning to “LDAIWIWGLGVCVGGGIKWLWAGLSFPTAGCHIYTISLVRFLYKNLLLT [LSMEM2]”, the median enrichment was determined as 15.5.

Turning to AAAAAAAA [Ala08], the median enrichment was determined as 7.64.

QSQEPSSLI [CNDP1]: the median enrichment is 0.195.

For the substance SRETVGG [JUN], the median enrichment is 3.4.

As for YDLIQHRNDSH [IFNA6], the median enrichment turned out to be 0.697.

QKMTQKLEPTKLLTPC [ADGRL3]: the median enrichment was 1.01.

Consider RRR [Arg03], for which the median enrichment was found to be 0.663.

As for YNYLLNQDKHAFLLPWFYL [NCKAP1], the median enrichment is 8.38.

As to “YIWLFMHCGMCSSFSVFRYKVLYQSVIYKVYQHKCW [MLH1]”, the median enrichment came to 23.5.

For QNIQVINELCYGIIALLYAG [CC2D2B], the median enrichment came out at 8.94.

On to YTSGKKIFTCAGL [DDX46], for which the median enrichment worked out at 3.47.

Regarding “LDRTCLRGRRTLAWAQESEAAFLLRGPSGESGPRYHARTLRGPVSCRRVSTFPPNPGLTALRSARRARAETRVGCGELKEPIK [UQCC3]”, the median enrichment was found to be 3.74.

Regarding KQQPV [DPPA2], the median enrichment turned out to be 0.433.

As for “WGWRQLSSRSLGFAALAAVTRNCPGLGGELGGP [ACP7]”, the median enrichment was determined as 8.55.

With CCCCCC [Cys06], the median enrichment is 12.4.

Turning to “LKKKKQQVMELHILVTQWTIIGSHWKSGKNPWRLSFSDILPNALLSRIFVSFCLIFWGVFVVVGLFFVFFF [PPP1R12A]”, the median enrichment worked out at 5.8.

On to WEAGWG [RPS6KB2], for which the median enrichment came out at 1.06.

Regarding QHQ [ANKRD6], the median enrichment came to 0.522.

Consider CCCC [Cys04], for which the median enrichment was 2.06.

Regarding YPSL [KCNK2], the median enrichment was 0.357.

As to KFGAQTSP [SPRR3], the median enrichment was 0.603.

Turning to QENKNCRK [MRPL13], the median enrichment was 0.366.

With SYKPA [WDR97], the median enrichment came out at 0.947.

For SYGTLAPRHEARWPVFLNLKCKILLFPGPRRV [ICOS], the median enrichment stood at 11.

For the substance “APLGLEFATGRILQRQVVPGPLLHPFSRRPCQRLHPVVNLVWRQRLRGWTSIVGQGLTLQGFCSWLWTPENPLLPSPNTRFLT [FAM110A]”, the median enrichment was 5.18.

On to EEEE [Glu04], for which the median enrichment is 8.36.

As to WLVTEDEDNSITKLF [CD58], the median enrichment is 17.6.

Turning to LYKKKYCPYQKQILLCTF [RHOT1], the median enrichment was 9.77.

Turning to YEKCVVCGADSGHHVDSLALPQATSPGTIFLP [BTD], the median enrichment was 2.26.

Turning to KKNQNGLR [ADGRB3], the median enrichment is 0.618.

With YTLENMYVWLIKCFKLN [NOTCH2NLA], the median enrichment worked out at 7.83.

Consider YKE [DCAF17], for which the median enrichment came out at 0.608.

LGKLPCRA [ZNF75D]: the median enrichment came out at 0.566.

As to QGTCPGSS [UBE2T], the median enrichment was 0.477.

Take SSNLF [ADPRM]: the median enrichment was 0.584.

“WPSPPCQGQDPDFSKCGSHSAGTCRDMRGGCCHGRLPLHTRHWGSDPPGRWPFSPSS [CYSRT1]”: the median enrichment is 2.04.

YPVLEGTGGIIFNDLLN [NXPE3]: the median enrichment was determined as 1.65.

As to QIL [TMEM244], the median enrichment is 0.849.

“KIWLFMHCGMCSSFSVFRYKVLYQSVIYKVYQHKCW [MLH1]”: the median enrichment turned out to be 5.38.

As for RTF [KBTBD3], the median enrichment was found to be 0.378.

With CGRTSALSDRTLRAMLPCHP [MRGPRX3], the median enrichment was 6.32.

With GRNQQSTSAGQQPREPLPTRIAGSVTEQAG [ETV6], the median enrichment was 4.01.

Regarding LSPLRNIINCRL [DKK2], the median enrichment amounted to 8.81.

As to “WPSLPPKPRACLSAQLEGPRLQGVLPQSRCFLCIRDPLPSHPVSCLHRWIIFEPPCVDHFEPPGLAQFILIKVFLGGILGT [PARVG]”, the median enrichment was 9.47.

For the substance GMSVVSCLQTPSPAQFI [SAMHD1], the median enrichment worked out at 1.45.

Regarding LRLQCLLRRKIKFTSSKVTLEDRALGMSFFF [OR2C3], the median enrichment stood at 4.08.

Turning to SSSAC [BPTF], the median enrichment came out at 0.596.

For “QVRLVQEHKLPPSPSPPPPGPGLKQPEDSPRGWLSPAAGSAFTWGGGAGLTLNPPPRQVGEGSHHSKCL [SLC2A4RG]”, the median enrichment was determined as 2.26.

Consider “LIHSQGKLGNSEEKSLPSFWMNCMSSGLSTTM [RNF32]”, for which the median enrichment stood at 10.

As for LSRLW [CREG1], the median enrichment turned out to be 16.6.

On to “SNIRFVIRNTLCLLWSCARWPQMDYRRLQRTRQMEH [BCL2L14]”, for which the median enrichment is 16.6.

On to LTRKCCCPSSTLRPGAG [FCHO1], for which the median enrichment is 7.02.

In the case of LHSL [ZNF443], the median enrichment turned out to be 0.555.

With WVPSEVFIPACVI [VPS13B], the median enrichment turned out to be 13.3.

Consider WLHW [RIMKLB], for which the median enrichment worked out at 3.98.

With LLC [OR10A3], the median enrichment is 3.73.

Take “LPSASGSVVGQALIPALWGGSLYSLFGGMVTEFIVEPFSVQMLWLQIRNPTSPG [GOLGA3]”: the median enrichment turned out to be 4.27.

Consider YASLAAGTSTWRS [CRB2], for which the median enrichment stood at 2.41.

Regarding “SPYPVPRCTNRWGPAPFLPGPHGPLSQEPRPLTSCPLEMVQHSGIYHPHLGPLQPPIKG [MYH14]”, the median enrichment was 5.6.

NNNNNNN [Asn07]: the median enrichment amounted to 0.297.

As to WPDLSERHGYHRMKVEL [CUTC], the median enrichment was found to be 12.

In the case of SATCPKA [NOL4L], the median enrichment was 0.348.

SDVQDL [ZMPSTE24]: the median enrichment stood at 0.181.

Turning to “GSPLCLGLLLPREFSPLTYPHLSGLTGRNHCTTERGWDGPASCLWEKTSCLGRGLCLVKVPTGNP [ITGAX]”, the median enrichment stood at 5.38.

As to QQQQQQQQQ [Gln09], the median enrichment amounted to 0.104.

“RNQVASCPLLRGNPRPLASLPTYKALSQGIAGPRCLDPGCASPSLCSPWKGR [HSPBP1]”: the median enrichment worked out at 7.21.

With “GGEERRADLGRALRTWPRARDSPGSSSPWQAQQHVPQIWKGLPLCQCLGGCHGCPHPLLSVCGVEEPTPASCQDHLGGHTPAK [GPRC5C]”, the median enrichment was found to be 0.687.

For RRLSISRDMVLTQQFPVMAKCSI [IL13RA2], the median enrichment was found to be 6.6.

For the substance CTKAWA [IFNGR2], the median enrichment amounted to 0.778.

Regarding “TIRLWDTYQSEPDGFSHFHLYVCAAFLVRWRKEILEEKDFQELLLFLQNLPTAHWDDEDISLLLAEAYRLKFAFADAPNHYKK [TBC1D22A]”, the median enrichment worked out at 4.42.

Take SCRDSPAPKYK [MT1G]: the median enrichment came out at 0.15.

On to “WGPGSLHASALAPAGSKHRACPPHPEDLRAMPVPPHAGGCLGHLPAH [RHPN1]”, for which the median enrichment stood at 3.51.

Regarding LKH [HOXA2], the median enrichment is 0.608.

In the case of LSFCLA [UTP3], the median enrichment was determined as 8.65.
